Experiment [1] addresses T1, MOTH domain of human Otoraplin (18-128) (human, UniProt Q9NRC9 18-128, [U-15N]-enriched).
T1 sequence (looked up): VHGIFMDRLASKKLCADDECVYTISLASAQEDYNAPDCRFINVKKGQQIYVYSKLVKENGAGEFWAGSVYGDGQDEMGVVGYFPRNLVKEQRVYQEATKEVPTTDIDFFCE
In words: NMR titration.

Experiment [2] addresses human TANGO1 (21-131) cargo-recognition (MOTH) domain (human) (UniProt Q5JRA6). In words: NMR titration.

In experiment [1], VPPPVPPRRR (peptide, UniProt Q07889 1149-1158, looked up) [class II PPII helix peptide SOS1 (1149-1158)] had a Kd of 1300 µM and an off-rate (koff) of 350000 s⁻¹.

For the molecule FHNYNVEELLGFLELYNSAA [synthetic peptide of residues 132 to 151 of human TANGO1], in experiment [2], the Kd was found to be 321 µM and the koff stood at 1100 s⁻¹.

The values are drawn from publication doi:10.1101/2022.02.02.478833 (bioRxiv, 2022).
